Target: NStr-M35_S, M35 short version (aa 2-452) with N-terminal Twin-Strep tag and TEV cleavage sequence (murine cytomegalovirus (MCMV))
Experiment: SEC-MALS

## NStr-M35_S, M35 short version (aa 2-452) with N-terminal Twin-Strep tag and TEV cleavage sequence (domain or fragment)
  stoichiometry N: 2

From doi:10.1101/2023.03.21.533612
